Residue numbers refer to the chain shown, from its start. Like-named read-outs stand apart in the source and are kept apart here. Each block holds one binder with its values, some of them ahead of it.
Assays:
[1] = biological target: T1, human DLL4, full length, on cells (human, UniProt Q9NR61 27-685); test: competition FACS: huNotch-1 to DLL4 cells
T1 construct: also called huDLL4 cells; human DLL4-293G
Experimental: (§1) Notch blocking assay: Briefly, stable cell lines overexpressing cell-surface DLL4 were harvested from tissue culture flasks and re-suspended in phosphate buffered saline (PBS) containing 1% bovine serum albumin and 1 mM CaCl₂ (FACS buffer). HEK293G-DLL4 cells were dispensed into 96-well plate (v-bottom) at 1.5×10⁵ cells/well in FACS buffer. After spinning down cells and discarding the supernatant, 50 μL of purified IgG with appropriate dilution were added to each well, and incubated on ice at 4° C. for 60 minutes, followed by addition of 50 μL/well of Notch1-biotin at 0.2 μg/mL for human DLL4-293G or 2.0 μg/mL for mouse DLL4-293G (1.0 or 0.1 μg/mL final) for an additional 1 hour incubation ice at 4° C. After washing the cells two times with FACS buffer, 50 μL of R-phycoerythrin-conjugated streptavidin (1:150 dilution in FACS buffer) (Jackson ImmunoResearch, West Grove, Pa., Cat.#016-110-084) were added. Following an incubation on ice (4° C., 60 minutes), cells were washed three times and resuspended in FACS buffer. Fluorescence was measured using a Becton Dickinson FACSCalibur-HTS (Becton Dickinson, San Jose, Calif.). Data were analyzed using Graphpad Prism software, and IC₅₀ values were reported as the concentration of antibody to achieve 50% reduction of Notch1 bound to DLL4 expressing cells.

mouse DLL4 on cells [2] = biological target: T2, mouse DLL4 on cells (mouse, UniProt Q9JI71 27-686); test: competition FACS: huNotch-1 to DLL4 cells
T2 construct: whole, on cells; also called mouse DLL4-293G; mu DLL4 cells
Experimental: as §1

[3] = biological target: T1, human DLL4, full length, on cells; test: FACS, DLL4 cells
mouse DLL4 on cells [4] = biological target: T2, mouse DLL4 on cells; test: FACS, DLL4 cells
[5] = biological target: T3, mouse DLL4 extracellular domain (mouse, UniProt Q9JI71 27-532); test: binding ELISA, DLL4 ECD
T3 construct: extracellular domain; also called muDLL4 ECD; murine DLL4

[6] = biological target: T4, human DLL4 extracellular domain (human, UniProt Q9NR61 27-529); test: binding ELISA, DLL4 ECD
T4 construct: purified recombinant ECD; biotin-labelled or 6xHis-tagged depending on the assay; also called huDLL4 ECD; hu DLL4 ECD

[7] = biological target: T1, human DLL4, full length, on cells; test: FACS, DLL4 cells; remark: listed apart in the source
Experimental: (§2) Stable cell lines overexpressing cell-surface DLL4 were harvested from tissue culture flasks, washed four times and resuspended in phosphate buffered saline (PBS) containing 1% bovine serum albumin and 1 mM CaCl₂ (FACS buffer). 1.5×10⁵ cells were incubated with antibodies at various concentrations in FACS buffer for 60 minutes on ice. […] Following an incubation on ice (4° C., 60 minutes), cells were washed three times and resuspended in FACS buffer. Fluorescence was measured using a Becton Dickinson FACSCalibur-HTS (Becton Dickinson, San Jose, Calif., US). Data were analyzed using Graphpad Prism software and EC₅₀ values were reported as the concentration of antibody to achieve 50% of maximal DLL4 antibodies binding to DLL4 expressing cells. […]

mouse DLL4 on cells [8] = biological target: T2, mouse DLL4 on cells; test: FACS, DLL4 cells; remark: listed apart in the source
Experimental: as §2

[9] = biological target: T3, mouse DLL4 extracellular domain; test: SPR (Biacore)
Method in brief: (§3)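 Purified anti-DLL4 antibodies (1 μg/ml) captured on immobilized goat anti-human Fc, with DLL4 ECD injected as analyte; HBS-EPB running buffer (pH 7.4), 25° C, referenced against capture-only surface. On/off rates from global 1:1 Langmuir fit; KD = Koff/Kon.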

[10] = biological target: T5, cynomolgus monkey DLL4 extracellular domain (cynomolgus monkey); test: SPR (Biacore)
T5 construct: extracellular domain; also called cynoDLL4 ECD; Cyno DLL4
Experimental: (§4) The BIACORE® surface plasmon resonance assay (Biacore, Inc., Piscataway, N.J., US) determines the affinity of antibodies with kinetic measurements of on-rate and off-rate constants. Binding of DLL4 antibodies to a purified recombinant DLL4 extracellular domain (ECD) was determined by surface plasmon resonance-based measurements with a Biacore® instrument (either a Biacore 2000, Biacore 3000, or Biacore T100; GE Healthcare, Piscataway, N.J., US) using running buffer HBS-EPB (10 mM HEPES [pH 7.4], 150 mM NaCl, 3 mM EDTA, 0.1 mg/ml BSA and 0.005% surfactant P20) at 25° C. For example, approximately 9000 RU of goat anti-human Fc specific polyclonal antibody (Thermo Fisher Scientific Inc., Rockford, Ill., US) diluted in 10 mM sodium acetate (pH 4.5) is directly immobilized across a CMS research grade biosensor chip using a standard amine coupling kit according to manufacturer's instructions and procedures at 25 μg/ml. Unreacted moieties on the biosensor surface were blocked with ethanolamine. For kinetic analysis, rate equations derived from the 1:1 Langmuir binding model were fitted simultaneously to multiple antigen injections (using global fit analysis) with the use of Scrubber 2 (BioLogic Software), Biacore Biaevaluation 4.0.1 software or Biacore T100 Evaluation software. Purified antibodies were diluted in running buffer for capture across goat anti-human Fc reaction surfaces. Antibodies to be captured as a ligand (1 μg/ml) were injected over reaction matrices at a flow rate of 10 μl/min. During the assay, all measurements were referenced against the capture surface alone (i.e., with no captured anti-DLL4 antibody). […] The equilibrium dissociation constant KD (M) of the reaction between antibodies and the target antigen was then calculated from the kinetic rate constants by the following formula: KD=Koff/Kₒₙ. Binding was recorded as a function of time and kinetic rate constants were calculated.

[11] = biological target: T4, human DLL4 extracellular domain; test: SPR (Biacore)
Experimental: as §4

[12] = biological target: T1, human DLL4, full length, on cells; test: cell-based or functional assay
[13] = biological target: T6, rat DLL4 extracellular domain (rat, UniProt D3ZHH1 28-530); test: SPR (Biacore)
T6 construct: extracellular domain; also called ratDLL4 ECD
Method in brief: as §3

[14] = biological target: T1, human DLL4, full length, on cells; test: competition FACS: huNotch-1-biotin to DLL4 cells
Experimental: as §1, with “cells. […]” for “cells.”

mouse DLL4 on cells [15] = biological target: T2, mouse DLL4 on cells; test: competition FACS: huNotch-1-biotin to DLL4 cells
Experimental: as §1, with “cells. […]” for “cells.”

T3 sequence (Q9JI71 27-532): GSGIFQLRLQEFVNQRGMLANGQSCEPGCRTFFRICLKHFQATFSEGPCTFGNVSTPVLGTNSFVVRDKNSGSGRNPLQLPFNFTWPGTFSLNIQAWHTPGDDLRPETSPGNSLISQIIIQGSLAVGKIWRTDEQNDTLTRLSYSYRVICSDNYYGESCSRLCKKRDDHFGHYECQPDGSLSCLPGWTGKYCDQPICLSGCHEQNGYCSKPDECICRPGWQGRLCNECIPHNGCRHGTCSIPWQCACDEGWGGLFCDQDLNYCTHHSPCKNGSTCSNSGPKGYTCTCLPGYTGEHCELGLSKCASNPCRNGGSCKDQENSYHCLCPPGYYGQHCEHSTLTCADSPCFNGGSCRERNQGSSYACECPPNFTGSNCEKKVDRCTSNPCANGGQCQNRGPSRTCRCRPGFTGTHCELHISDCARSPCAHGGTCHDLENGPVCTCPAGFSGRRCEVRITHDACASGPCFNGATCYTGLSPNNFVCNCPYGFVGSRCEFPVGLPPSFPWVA
T1 sequence (Q9NR61 27-685 limits assumed): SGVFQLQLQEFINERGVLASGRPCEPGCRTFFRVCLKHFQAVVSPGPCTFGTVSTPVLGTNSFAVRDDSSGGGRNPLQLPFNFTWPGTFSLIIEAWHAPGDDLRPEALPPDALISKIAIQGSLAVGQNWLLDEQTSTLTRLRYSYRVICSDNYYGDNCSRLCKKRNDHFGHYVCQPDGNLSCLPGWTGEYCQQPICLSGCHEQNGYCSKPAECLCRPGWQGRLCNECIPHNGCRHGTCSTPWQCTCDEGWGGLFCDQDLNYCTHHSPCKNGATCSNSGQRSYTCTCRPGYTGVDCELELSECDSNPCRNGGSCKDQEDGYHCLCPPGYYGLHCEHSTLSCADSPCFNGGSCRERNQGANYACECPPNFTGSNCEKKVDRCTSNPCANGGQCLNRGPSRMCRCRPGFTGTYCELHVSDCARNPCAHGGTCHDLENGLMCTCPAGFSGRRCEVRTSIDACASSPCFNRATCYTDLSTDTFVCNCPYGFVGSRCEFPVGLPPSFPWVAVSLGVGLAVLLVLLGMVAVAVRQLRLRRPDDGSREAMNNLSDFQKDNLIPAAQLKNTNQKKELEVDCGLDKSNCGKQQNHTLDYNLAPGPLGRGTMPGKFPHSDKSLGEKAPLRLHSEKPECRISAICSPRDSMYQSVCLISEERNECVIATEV
T4 sequence (Q9NR61 27-529 limits assumed): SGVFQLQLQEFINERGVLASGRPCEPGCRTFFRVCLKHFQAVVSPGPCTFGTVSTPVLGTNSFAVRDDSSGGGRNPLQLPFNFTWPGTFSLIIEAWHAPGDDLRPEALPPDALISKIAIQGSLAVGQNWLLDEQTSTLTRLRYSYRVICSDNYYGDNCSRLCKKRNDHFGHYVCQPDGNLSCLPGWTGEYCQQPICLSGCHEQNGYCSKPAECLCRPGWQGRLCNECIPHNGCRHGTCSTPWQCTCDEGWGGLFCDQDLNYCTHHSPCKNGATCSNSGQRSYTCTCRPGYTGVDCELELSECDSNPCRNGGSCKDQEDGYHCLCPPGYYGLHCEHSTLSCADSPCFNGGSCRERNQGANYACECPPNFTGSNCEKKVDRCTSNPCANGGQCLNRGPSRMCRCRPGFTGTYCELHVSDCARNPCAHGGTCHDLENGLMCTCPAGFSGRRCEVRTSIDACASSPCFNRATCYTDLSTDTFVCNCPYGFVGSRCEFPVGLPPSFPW
T2 sequence (Q9JI71 27-686): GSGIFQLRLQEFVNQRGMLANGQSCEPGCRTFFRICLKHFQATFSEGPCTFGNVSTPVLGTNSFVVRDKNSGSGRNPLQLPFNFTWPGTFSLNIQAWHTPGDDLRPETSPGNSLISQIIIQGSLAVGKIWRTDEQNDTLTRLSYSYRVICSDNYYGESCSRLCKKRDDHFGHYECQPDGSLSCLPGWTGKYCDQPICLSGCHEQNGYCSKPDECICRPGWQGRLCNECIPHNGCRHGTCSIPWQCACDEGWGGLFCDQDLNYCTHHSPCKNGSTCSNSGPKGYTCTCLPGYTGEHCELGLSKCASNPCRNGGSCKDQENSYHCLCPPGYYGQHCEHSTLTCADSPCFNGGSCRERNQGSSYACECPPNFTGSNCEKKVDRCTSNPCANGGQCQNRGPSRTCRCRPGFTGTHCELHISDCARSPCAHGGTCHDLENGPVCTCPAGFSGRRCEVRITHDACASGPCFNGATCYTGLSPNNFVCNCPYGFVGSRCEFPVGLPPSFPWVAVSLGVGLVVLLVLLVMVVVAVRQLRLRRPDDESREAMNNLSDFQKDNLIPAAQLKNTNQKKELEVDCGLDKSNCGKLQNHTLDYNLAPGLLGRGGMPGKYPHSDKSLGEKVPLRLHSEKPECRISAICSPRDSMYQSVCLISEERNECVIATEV
T6 sequence (D3ZHH1 28-530): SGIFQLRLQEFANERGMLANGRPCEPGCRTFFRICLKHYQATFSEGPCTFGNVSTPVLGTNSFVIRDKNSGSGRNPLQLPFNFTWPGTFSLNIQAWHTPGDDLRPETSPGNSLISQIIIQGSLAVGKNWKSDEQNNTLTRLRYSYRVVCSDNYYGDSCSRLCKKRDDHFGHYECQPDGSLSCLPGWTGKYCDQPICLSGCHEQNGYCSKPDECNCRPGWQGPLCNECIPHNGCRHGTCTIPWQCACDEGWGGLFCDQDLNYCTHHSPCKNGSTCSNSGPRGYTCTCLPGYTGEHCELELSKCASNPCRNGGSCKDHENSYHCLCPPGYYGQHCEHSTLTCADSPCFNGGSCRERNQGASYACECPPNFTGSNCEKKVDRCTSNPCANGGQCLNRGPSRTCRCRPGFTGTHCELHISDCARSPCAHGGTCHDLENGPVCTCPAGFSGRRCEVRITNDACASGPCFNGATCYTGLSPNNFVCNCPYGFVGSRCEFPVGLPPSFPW

B4: 14A11 chimeric antibody (antibody, human IgG1, V domains shown)
VH: EVQLQQSGPELAKPGSSVKISCKASGYTFTNSYISWIKQTTGQGLEYVGYINTGSGGADYNEKFKGKATLTVDKSSRTAFMQLSSLTPGDSAVYYCAKSILLGSTCYFDYWGQGVLVTVSS
VL: NTVLTQSPALAVSLGQRVTISCKASRSVSSPMYSYIYWYQQKPGQQPKLLIYRASTLASGVPARFSGSGSGTDFTLNIDPVEADDIATYFCQQSWSDPFTFGSGTKLEIKR
notes: also called Chimera of 14A11
IC50 [1]: 4.03 nM
IC50 (mouse DLL4 on cells [2]): 1.39 nM
EC50 [3]: 1.61 nM
EC50 (mouse DLL4 on cells [4]): 2.14 nM

B5: 15D6 chimeric antibody (antibody, human IgG1, V domains shown)
VH: B4 VH with N31S, V48I, A58T, G66D, A79V, C106Y, F108L, L116M
VL: B4 VL with N1D, V28L, P43L, K48R
notes: also called Chimera of 15D6
IC50 [1]: 10.5 nM
IC50 (mouse DLL4 on cells [2]): 1.49 nM
EC50 [3]: 1.72 nM
EC50 (mouse DLL4 on cells [4]): 1.82 nM

B6: 14G1 rat anti-DLL4 monoclonal antibody (antibody, rat IgG2a, V domains shown)
VH: EVQLQQSGAELAKPGSSVKISCKASGYTFTNYDISWIKQTNGQGLEYLGYINTGSGGIYSNEKFKGKATLTVDKSSNTAFMQLSSLTPEDTAVYYCVREGNNFDHWGQGVKVTVSS
VL: DTVMTQSPASMSTSVGERVTVNCKASQSVGTIVAWFQQKPGQSPKRLIYLATYRHTGVPDRFIGSGFGRDFTLTISNVEAEDLAVYYCLQYGSRPFTFGAGTKLEIKR
notes: rat IgG2a/K hybridoma mAb; also called MC13-14G1.1B4
Notch activation Inhibition (IC50, nM), huDLL4 cell/Notch reporter cells [12]: 6.1 nM
EC50 [7]: 8.6 nM
EC50 (mouse DLL4 on cells [8]): > 50 nM
binding result [13]: no binding
binding result [9]: no binding
Kd [10]: 10.5 nM
koff [10]: 0.00041 s⁻¹
kon [10]: 39000 M⁻¹ s⁻¹
Kd [11]: 7.2 nM
koff [11]: 0.00039 s⁻¹
kon [11]: 54000 M⁻¹ s⁻¹
IC50 [14]: 4.2 nM

Now from value to binder:

IC50 [1]: 5.95 nM
IC50 (mouse DLL4 on cells [2]): 4.39 nM
EC50 [3]: 2.32 nM
EC50 (mouse DLL4 on cells [4]): 0.99 nM
B1: 37D10 chimeric antibody (antibody, human IgG1, V domains shown)
VH: AVQLVESGGGLVQPKESLKISCAASGFTFSNAAMYWVRLAPGKGLEWVARIRTKPNNYATYYAESVKGRFTISRDDSKSMVYVQMDNLKTEDTAMYYCTAAPWRDSYAHVYWGQGVMVTVSS
VL: DIQMTQSPPVLSASVGDRVTLSCKASQNIHKNLDWYQQKHGDAPKLLIYYTDHLQTGVPSRFSGSGSATDYTLTISSLQPEDVATYYCYQYNGGPFTFGSGTKLEIKR
notes: also called Chimera of 37D10

EC50 [5]: 0.15 nM
EC50 [6]: 0.08 nM
EC50 [7]: 3.1 nM
EC50 (mouse DLL4 on cells [8]): 0.8 nM
Kd [9]: 88 nM
koff [9]: 0.0041 s⁻¹
kon [9]: 48000 M⁻¹ s⁻¹
Kd [10]: 0.03 nM
koff [10]: 6.3e-06 s⁻¹
kon [10]: 220000 M⁻¹ s⁻¹
Kd [11]: 0.03 nM
koff [11]: 7e-06 s⁻¹
kon [11]: 280000 M⁻¹ s⁻¹
B2: 32C7 rat anti-DLL4 monoclonal antibody (antibody, rat IgG2a, V domains shown)
VH: EVQLVESGGGLVQPGRSLKLSCLASGFPFSSVWMTWIRQAPGKGLEWIATITNSGASTYYSASVKGRFTISRDNVKSTLYLQMTSLGSEDTATYYCTRVGTSFDYWGQGVMVTVSS
VL: DIQMTQSPASLSASLGETVTIECRASDDIYNGLAWFQQKPGKSPQLLIYDANTLHTGVPSRFSGSGSGTQFSLKINSLQSEDVASYFCQQFYDYPPYTFGAGTKLELKR
notes: rat IgG2a/k hybridoma mAb; also called MC10-32C7.5A4

Notch activation Inhibition (IC50, nM), huDLL4 cell/Notch reporter cells [12]: 3.2 nM
EC50 [7]: 15 nM
EC50 (mouse DLL4 on cells [8]): 1.6 nM
binding result [13]: no binding
Kd [9]: 0.7 nM
koff [9]: 5.1e-05 s⁻¹
kon [9]: 74000 M⁻¹ s⁻¹
Kd [10]: 14.9 nM
koff [10]: 0.00083 s⁻¹
kon [10]: 56000 M⁻¹ s⁻¹
Kd [11]: 9.2 nM
koff [11]: 0.001 s⁻¹
kon [11]: 110000 M⁻¹ s⁻¹
IC50 [14]: 25 nM
IC50 (mouse DLL4 on cells [15]): 1.5 nM
B3: 15D6 rat anti-DLL4 monoclonal antibody (antibody, rat IgG2a, V domains shown)
VH: B4 VH with N31S, V48I, A58T, G66D, A79V, C106Y, F108L, L116M
VL: B4 VL with N1D, V28L, P43L, K48R
notes: rat IgG2a/K hybridoma mAb; also called MC13-15D6.1G7
